Test results reported in patent US20090130133A1 (VAXON BIOTECH, published 2009).

B1: MAGE-A248V9 (peptide)
peptide: YLEYRQVPV
notes: also called optimized variant of MAGE-A248D9/G9
B2: TERT988Y (peptide)
peptide: YLQVNSLQTV
notes: also called optimized variant of the cryptic peptide TERT988
B3: HER-2/neu402Y (peptide)
peptide: YLEEITGYL
notes: also called optimized variant of the cryptic peptide HER-2/neu402

What follows are binders tested against T1, HLA-A*0201 (human) (assay: T2 cell HLA-A*0201 stabilisation, flow cytometry with mAb BB7.2; peptide concentration / reference peptide concentration giving 20% HLA-A*0201 expression).
T1 construct: whole, on cells; MHC class I molecule on T2 cells; also called HLA-A2
Experimental: (§1) The protocol used to measure relative affinity (RA) is described in detail elsewhere (Tourdot et al., 2000). […] The cells were then treated with Brefeldin A for 1 h, washed, incubated at 37° C. for 0, 2, 4 and 6 hours, and labeled with mAb BB7.2.

Row | Binder | RA (relative affinity)
1 | B1 | 1.8 ratio to reference peptide HIVpol589 (reference = 1)
2 | B2 | 2.1 ratio to reference peptide HIVpol589 (reference = 1)
3 | B3 | 3.6 ratio to reference peptide HIVpol589 (reference = 1)

What follows are binders tested against T1, HLA-A*0201 (assay: T2 cells loaded with 100 µM peptide, Brefeldin A, decay of HLA-A*0201 labelling (mAb BB7.2) over 0-6 h).
Experimental: as §1

Row | Binder | DC50 (half-life of the HLA/peptide complex) [h]
4 | B1 | 4
5 | B2 | > 6
6 | B3 | 4
